USRE49099 (Bayer, dated 2022)

B1: Hu1573-1 (antibody, V domains shown)
VH: EVQLVESGGGLVQPGGSLRLSCAASGFTFSNYYLNWVRQAPGKGLEWVGDIRLKSNNYEKHYAESVKGRFTISRDDSKNSLYLQMNSLKTEDTAVYYCAREGDYFDYWGQGTTVTVSS
VL: DIVLTQTPLSLSVTPGQPASISCRASESVDSFGATFMHWYLQKPGQPPQLLIYLASNLESGVPDRFSGSGSRTDFTLKISRVEAEDVGVYYCQQNNEDPYTFGQGTKLEIKR
notes: Humanized IgG, human gamma 1 / kappa constant regions by vectors pCP-hCg1 and pCP-hck; also called H1573VH.1 + H1573Vk.2C
B2: Hu1573-2 (antibody, V domains shown)
VH: EVQLVESGGGLVQPGGSLRLSCAASGFTFSNYYLNWVRQAPGKGLEWVGDIRLKSNNYEKHYAESVKGRFTISRDDSKNSLYLQMNSLKTEDTAVYYCIREGDYFDYWGQGTTVTVSS
VL: DIVLTQTPLSLSVTPGQPASISCRASESVDSFGATFMHWYLQKPGQPPQLLIYLASNLESGVPDRFSGSGSRTDFTLKISRVEAEDVGVYYCQQNNEDPYTFGQGTKLEIKR
notes: Humanized IgG, human gamma 1 / kappa constant regions by vectors pCP-hCg1 and pCP-hck; also called H1573VH.1A + H1573Vk.2C
B3: Hu1573-5 (antibody, V domains shown)
VH: EVQLVESGGGLVQPGGSLRLSCAASGFTFSNYYLNWVRQAPGKGLEWVGDIRLKSNNYEKHYAESVKGRFTISRDDSKNSVYLQMNSLKTEDTAVYYCIREGDYFDYWGQGTTVTVSS
VL: DIVMTQTPLSLSVTPGQPASISCRASESVDSFGATFMHWYLQKPGQPPQLLIYLASNLESGVPDRFSGSGSRTDFTLKISRVEAEDVGVYYCQQNNEDPYTFGQGTKLEIKR
notes: Humanized IgG, human gamma 1 / kappa constant regions by vectors pCP-hCg1 and pCP-hck; also called H1573VH.1B + H1573Vk.2B
B4: Hu1573-10 (antibody, V domains shown)
VH: EVQLVESGGGLVQPGGSLRLSCAASGFTFSNYYLNWVRQAPGKGLEWVGDIRLKSNNYEKHYAESVKGRFTISRDDSKSSLYLQMNSLKTEDTAVYYCIREGDYFDYWGQGTTVTVSS
VL: DIVLTQTPLSLSVTPGQPASISCRASESVDSFGATFMHWYLQKPGQPPQLLIYLASNLESGVPDRFSGSGSGTDFTLKISRVEAEDVGVYYCQQNNEDPYTFGQGTKLEIKR
notes: Humanized IgG, human gamma 1 / kappa constant regions by vectors pCP-hCg1 and pCP-hck; also called H1573VH.1D + H1573Vk.2A
B5: Hu1573-8 (antibody, V domains shown)
VH: EVQLVESGGGLVQPGGSLRLSCAASGFTFSNYYLNWVRQAPGKGLEWVADIRLKSNNYEKHYAESVKGRFTISRDDSKNSLYLQMNSLKTEDTAVYYCIREGDYFDYWGQGTTVTVSS
VL: DIVMTQTPLSLSVTPGQPASISCRASESVDSFGATFMHWYLQKPGQPPQLLIYLASNLESGVPDRFSGSGSRTDFTLKISRVEAEDVGVYYCQQNNEDPYTFGQGTKLEIKR
notes: Humanized IgG, human gamma 1 / kappa constant regions by vectors pCP-hCg1 and pCP-hck; also called H1573VH.1C + H1573Vk.2B

Tests used:
[1] = molecular target: T1, human activated protein C (human, UniProt P04070 43-197; P04070 212-461); assay: SPR (Biacore), 1:1 binding model
T1 construct: also called human aPC; human APC

[2] = molecular target: T2, cyno activated protein C (cyno (monkey)); assay: SPR (Biacore), 1:1 binding model
T2 construct: also called cyno aPC; cyno APC

[3] = molecular target: T3, human Protein C (human, UniProt P04070 43-461); assay: ELISA, coated antigen
T3 construct: Zymogen used as negative control in the ELISA; also called human PC; hPC

[4] = molecular target: T1, human activated protein C; assay: ELISA, coated antigen
[5] = molecular target: T2, cyno activated protein C; assay: ELISA, coated antigen
[6] = molecular target: T1, human activated protein C; assay: SPR (Biacore)

Binder	Kd [1]	koff [1]	kon [1]	Kd [2]	koff [2]	kon [2]	binding result [3]	EC50 [4]	EC50 [5]	Kd [6]
B1	3.8 nM	0.00554 s⁻¹	1.46e+06 M⁻¹ s⁻¹	16.7 nM	0.00402 s⁻¹	240000 M⁻¹ s⁻¹	no binding (tested: 20 nM)	0.369 nM	0.865 nM	< 5 nM
B2	4.61 nM	0.00624 s⁻¹	1.35e+06 M⁻¹ s⁻¹	16.4 nM	0.00384 s⁻¹	235000 M⁻¹ s⁻¹	no binding (tested: 20 nM)	0.265 nM	0.774 nM	< 5 nM
B3	4.16 nM	0.0064 s⁻¹	1.54e+06 M⁻¹ s⁻¹	14.5 nM	0.00293 s⁻¹	202000 M⁻¹ s⁻¹	no binding (tested: 20 nM)	0.552 nM	1.03 nM	< 5 nM
B4	4.38 nM	0.00636 s⁻¹	1.45e+06 M⁻¹ s⁻¹	11 nM	0.00479 s⁻¹	434000 M⁻¹ s⁻¹	no binding (tested: 20 nM)	0.575 nM	0.68 nM	< 5 nM
B5	4.03 nM	0.006 s⁻¹	1.49e+06 M⁻¹ s⁻¹	12.3 nM	0.00447 s⁻¹	363000 M⁻¹ s⁻¹	no binding (tested: 20 nM)	0.697 nM	0.713 nM	< 5 nM
